T1: active heparanase (H53), heterodimer of the 8 kDa and 45 kDa subunits (human, UniProt Q9Y251 36-109; Q9Y251 158-543)
T1 sequence 1: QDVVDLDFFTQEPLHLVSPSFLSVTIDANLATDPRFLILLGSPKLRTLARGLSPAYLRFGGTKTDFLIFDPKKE
T1 sequence 2: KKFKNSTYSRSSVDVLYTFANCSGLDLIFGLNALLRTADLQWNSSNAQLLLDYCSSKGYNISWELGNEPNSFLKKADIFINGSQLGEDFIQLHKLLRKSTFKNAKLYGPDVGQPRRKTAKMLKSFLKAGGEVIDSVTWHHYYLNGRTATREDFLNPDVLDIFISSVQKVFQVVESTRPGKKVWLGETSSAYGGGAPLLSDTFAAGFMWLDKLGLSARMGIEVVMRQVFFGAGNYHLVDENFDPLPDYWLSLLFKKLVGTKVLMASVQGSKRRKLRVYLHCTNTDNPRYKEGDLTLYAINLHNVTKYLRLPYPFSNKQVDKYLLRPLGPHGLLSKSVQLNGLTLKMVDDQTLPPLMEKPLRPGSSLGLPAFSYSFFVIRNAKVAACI

T2: pro-heparanase (H60), purified recombinant human 60 kDa latent heparanase (human, UniProt Q9Y251 36-543)
T2 sequence: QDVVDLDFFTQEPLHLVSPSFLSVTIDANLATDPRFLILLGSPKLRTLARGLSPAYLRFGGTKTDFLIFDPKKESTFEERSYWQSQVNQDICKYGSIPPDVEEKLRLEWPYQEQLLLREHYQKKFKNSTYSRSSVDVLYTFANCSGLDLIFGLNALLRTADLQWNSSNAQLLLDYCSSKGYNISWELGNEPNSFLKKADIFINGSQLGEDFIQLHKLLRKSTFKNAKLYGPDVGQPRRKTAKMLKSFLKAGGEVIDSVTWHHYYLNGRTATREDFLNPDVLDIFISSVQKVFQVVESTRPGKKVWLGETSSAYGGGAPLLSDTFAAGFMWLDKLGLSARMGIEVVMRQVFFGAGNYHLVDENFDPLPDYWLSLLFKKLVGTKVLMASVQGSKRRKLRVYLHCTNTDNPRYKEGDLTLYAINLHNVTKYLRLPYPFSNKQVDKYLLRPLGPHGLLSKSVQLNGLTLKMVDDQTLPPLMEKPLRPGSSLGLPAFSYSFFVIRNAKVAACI


biological target: T1, active heparanase (H53), heterodimer of …; assay: cell-based or functional assay

Binder | IC50 H53
PRFLILL [P8-11] | 1.4 µM
LRTLARGLSPAYL [P8-5] | 18 µM
DPRFLILL [P8-16] | 6 µM

Other lines, results leading:

IC50 H53 | Binder
8 µM | FLILLGSPKLRTL [P8-8]
2.3 µM | PRFLILLGSPKLR [P8-4]
5 µM | RFLILL [P8-18]
7 µM | CPAYLRFGGTKTDFLIFDPLLE [Pep-7]

biological target: T2, pro-heparanase (H60), purified …; assay: cell-based or functional assay

IC50 H60 (µM), H60 activation in the cell-based assay | Binder
65 µM | PRFLILL [P8-11]

biological target: T1, active heparanase (H53), heterodimer of …; assay: cell-based or functional assay; remark: another data set of the same source

IC50 Heparanase | Binder
21 µM | CTWHHYYLNGRTATR [Pep-25]
